According to the RNAGym collection of RNA variant scans (doi:10.1021/acssynbio.7b00057):

B1: Pistol ribozyme (parent)
chain: GGGUCGUUGUUCCAUAAUCGCGUGGAUAUGGCACGCAAGUUUCUACCGGGCACCGUAAAUGUCCGACUGGAGCCGUUCGGGCGGCUAUAAACAGACCUCAGGCCCGAAGCGUGGCGGCACCUGCCGCCGGUGGUAAAAAAGAUCGGAAGAGCACACGUCU

Variants of: B1
Test: aptazyme ON/OFF ratio, guanine; higher = stronger switching; co-transcriptional cleavage with and without guanine

Variant | aptazyme ON/OFF ratio
U7A U8G U11G C12U C13A | 1.63
U7A U8G U11G C12U C13G | 1.29
U7A U8G U11G C12U C13U | 1.22
U7A U8G U10C U11A C12G C13A | 1.22
U7A U8G U10C U11A C12G C13U | 1.31
U7A U8G U10C U11A C12G C13G | 1.28
U7A U8G U11A C12G C13U | 1.24
U7A U8G U11A C12G C13A | 1.11
U7A U8G U11A C12G C13G | 1.07
U7A U8G U11C C12G | 1.05
U7A U8G U11C C12U | 1.31
U7A U8G U11C C12A | 1.24
U7A U10C U11G C12G C13A | 1.24
U7A U10C U11G C12G C13U | 1.18
U7A U10C U11G C12G C13G | 1.31
U7A U10A C12G C13U | 1.27
U7A U10A C12G C13A | 1.31
U7A U10A C12G C13G | 1.25
U7A U10A U11G C12A C13A | 1.17
U7A U10A U11G C12A C13G | 1.39
U7A U10A U11G C12A C13U | 1.17
U7A U10G U11A C12A | 1.36
U7A U10G U11A C12U | 1.13
U7A U10G U11A C12G | 1.24

Variant | aptazyme ON/OFF ratio
U7A U10G C12U C13A | 1.41
U7A U10G C12U C13U | 1.36
U7A U10G C12U C13G | 1.12
U7A U8G U10G U11C C13G | 1.29
U7A U8G U10G U11C C13A | 1.11
U7A U8G U10G U11C C13U | 1.3
U7A U10C U11C C12A C13G | 1.16
U7A U10C U11C C12A C13U | 1.1
U7A U10C U11C C12A C13A | 1.06
U7A U10C C12A | 1.37
U7A U10C C12G | 1.42
U7A U10C C12U | 3.22
U7A U8G U10G C12U C13A | 1.11
U7A U8G U10G C12U C13U | 1.26
U7A U8G U10G C12U C13G | 1.28
U7A U10G U11A C12U C13G | 1.13
U7A U10G U11A C12U C13U | 1.07
U7A U10G U11A C12U C13A | 1.29
U7A U8G U10G | 1.25
U7A U10G C13U | 1.27
U7A U10G C13A | 1.31
U7A U10G C13G | 1.23
U7A U8G U10G U11C C12U | 1.53
U7A U8G U10G U11C C12G | 1.14

Variant | aptazyme ON/OFF ratio
U7A U8G U10G U11C C12A | 1.21
U7A U10C U11C C12U | 1.04
U7A U10C U11C C12G | 1.14
U7A U10C U11C C12A | 1.1
U7A U8G U11G C12G C13G | 1.32
U7A U8G U11G C12G C13U | 1.42
U7A U8G U11G C12G C13A | 1.15
U7A U10C U11A C13G | 1.09
U7A U10C U11A C13A | 1.15
U7A U10C U11A C13U | 1.16
U7A U10G | 1.56
U7A U10A | 1.11
U7A U10C | 4.51
U7A U8G U10C U11G C12A | 1.43
U7A U8G U10C U11G C12U | 1.29
U7A U8G U10C U11G C12G | 1.33
U7A U8G U10G U11G C12G C13A | 1.45
U7A U8G U10G U11G C12G C13U | 1.18
U7A U8G U10G U11G C12G C13G | 1.03
U7A U8G U10G U11A C12U C13A | 1.21
U7A U8G U10G U11A C12U C13U | 1.15
U7A U8G U10G U11A C12U C13G | 0.975
U7A U8G U11A C12G | 1.2
U7A U8G U11A C12U | 1.23

Variant | aptazyme ON/OFF ratio
U7A U8G U11A C12A | 1.43
U7A U8G U11C C12A C13A | 1.17
U7A U8G U11C C12A C13U | 1.19
U7A U8G U11C C12A C13G | 1.12
U7A U8G U11C C12G C13U | 1.2
U7A U8G U11C C12G C13G | 1.17
U7A U8G U11C C12G C13A | 1.02
U7A U8G U10C U11C | 2.69
U7A U8G U10C U11G | 1.29
U7A U8G U10C U11A | 1.95
U7A U10G U11A C12A C13A | 1.17
U7A U10G U11A C12A C13U | 1.08
U7A U10G U11A C12A C13G | 1.11
U7A U10G U11A C12G C13G | 1.17
U7A U10G U11A C12G C13U | 1.28
U7A U10G U11A C12G C13A | 1.08
U7A U8G U10C U11A C12U C13G | 0.954
U7A U8G U10C U11A C12U C13U | 1.18
U7A U8G U10C U11A C12U C13A | 1.35
U7A U8G U10G U11C C12A C13G | 1.11
U7A U8G U10G U11C C12A C13U | 1.51
U7A U8G U10G U11C C12A C13A | 1.39
U7A U8G U10G C12A C13G | 1.12
U7A U8G U10G C12A C13A | 1.04

Variant | aptazyme ON/OFF ratio
U7A U8G U10G C12A C13U | 1.15
U7A U10C U11A C12A C13U | 1.11
U7A U10C U11A C12A C13G | 1.23
U7A U10C U11A C12A C13A | 1.21
U7A U10A U11G C12U C13G | 1.45
U7A U10A U11G C12U C13U | 1.35
U7A U10A U11G C12U C13A | 1.11
U7A U8G U10G U11G | 1.44
U7A U8G U10G U11A | 2.88
U7A U8G U10G U11C | 1.39
U7A U8G U10C C12U | 1.5
U7A U10A U11G C12G C13U | 1.16
U7A U10A U11G C12G C13A | 1.06
U7A U10A U11G C12G C13G | 1.11
U7A U8G U10C U11A C12A | 1.5
U7A U8G U10C U11A C12G | 1.48
U7A U8G U10C U11A C12U | 1.27
U7A U8G U10C U11C C12U C13U | 1.17
U7A U8G U10C U11C C12U C13A | 1.45
U7A U8G U10C U11C C12U C13G | 1.18
U7A U8G U10C U11G C12U C13A | 1.26
U7A U8G U10C U11G C12U C13U | 1.31
U7A U8G U10C U11G C12U C13G | 1.44
U7A U10G C12A C13G | 1.09

Variant | aptazyme ON/OFF ratio
U7A U10G C12A C13U | 1.2
U7A U10G C12A C13A | 1.16
U7A U10A U11C C12G | 1.1
U7A U10A U11C C12A | 1.08
U7A U10A U11C C12U | 1.03
U7A U10A U11C C12U C13G | 1.07
U7A U10A U11C C12U C13U | 1.04
U7A U10A U11C C12U C13A | 1.07
U7A U8G U10C U11G C12A C13G | 1.61
U7A U8G U10C U11G C12A C13U | 1.19
U7A U8G U10C U11G C12A C13A | 1.42
U7A U10C U11C C13A | 1.03
U7A U10C U11C C13G | 1.07
U7A U10C U11C C13U | 1.03
U7A U8G U11G C12A C13U | 1.21
U7A U8G U11G C12A C13A | 1.18
U7A U8G U11G C12A C13G | 1.33
U7A U10C U11G C12G | 1.26
U7A U10C U11G C12A | 1.08
U7A U10C U11G C12U | 1.24
U7A U10A U11A C12G C13G | 1.46
U7A U10A U11A C12G C13A | 1.07
U7A U10A U11A C12G C13U | 1.25
U7A U10C U11C C12U C13U | 1.07

Variant | aptazyme ON/OFF ratio
U7A U10C U11C C12U C13G | 1.08
U7A U10C U11C C12U C13A | 1.03
U7A U8G U10G U11C C12G C13A | 1.22
U7A U8G U10G U11C C12G C13G | 1.22
U7A U8G U10G U11C C12G C13U | 1.56
U7A U8G U10C U11C C12G C13A | 1.07
U7A U8G U10C U11C C12G C13G | 1.26
U7A U8G U10C U11C C12G C13U | 1.19
U7A U10C U11A C12A | 1.23
U7A U10C U11A C12G | 1.26
U7A U10C U11A C12U | 1.3
U7A U8G U10G C12A | 1.17
U7A U8G U10G C12G | 1.21
U7A U8G U10G C12U | 1.37
U7A U10A U11G C12A | 1.13
U7A U10A U11G C12G | 1.45
U7A U10A U11G C12U | 1.15
U7A U8G U11A C12A C13U | 1.07
U7A U8G U11A C12A C13A | 1.41
U7A U8G U11A C12A C13G | 1.3
U7A U8G U10C U11C C12A C13U | 1.49
U7A U8G U10C U11C C12A C13G | 1.3
U7A U8G U10C U11C C12A C13A | 1.61
